First the molecules themselves.
B1: AcRedAm (Aspergillus calidoustus) (protein)
chain: MSTITLFGLGAMGKALAAKYIEKGYTTTIWNRTPSKAAPLVEKGAKLANTVGEGLASADLIILCLLDNASVRQTLDQATAALNGKTVINLTNGTPSQARETSEWVISHGAQYIHGGIMAVPDMIGSPHAVLLYSGESAETFSRVEAHLSHLGTSKFLGTDPGSASLHDLALLSGMYGLFSGFFHATALVKSQPGTTATGFVQLLTPWLSAMTHYLGALAKQIDEGDYATQGSNMAMQVTGVQNIVRASEEAGVTADLIMPILGRMTRAAEAGYADVDVSAVIEFMKE
notes: dimer in homology model

These results are taken from article PMC8727753, “Engineering of Reductive Aminases for Asymmetric Synthesis of Enantiopure Rasagiline” (Frontiers in Bioengineering and Biotechnology, 2021).

The Km is the substrate concentration at which the rate is half of its maximum. For orientation: kcat means the number of substrate molecules converted per active site and unit of time at saturation. As a reminder, the kcat/Km is the turnover number divided by the Michaelis constant.

In one data set the test system is T1, O=C1CCc2ccccc21.
T1 construct: dimer in homology model
Description: purified protein. The class given is biochemical, Aspergillus calidoustus. The following applies: 20 mM propargylamine, 0.2 mM NADPH, 1% DMSO, 100 mM Tris-HCl pH 9.0.
Turning to “AcRedAm (Aspergillus calidoustus; W207S/Y214C)”, the Km is 21 ± 4 µM, the kcat stood at 0.026 ± 0.002 s⁻¹ and the kcat/Km amounted to 1240 ± 26 M⁻¹ s⁻¹.
Take “AcRedAm (Aspergillus calidoustus; Y214M)”: the Km is 12 ± 4 µM, the turnover number (kcat) was determined as 0.014 ± 0.002 s⁻¹ and the kcat/Km was determined as 1170 ± 21 M⁻¹ s⁻¹.
Taken in the same sequence, the figures for “AcRedAm (Aspergillus calidoustus; Q237A)” were 9 ± 1 µM, 0.007 ± 0.001 s⁻¹ and 778 ± 21 M⁻¹ s⁻¹.
The like results for “AcRedAm (Aspergillus calidoustus; Q237G)” were, in that order, 4 ± 1 µM, 0.002 ± 0.001 s⁻¹ and 500 ± 30 M⁻¹ s⁻¹.
As for “AcRedAm (Aspergillus calidoustus; W207C)”, the Michaelis-Menten constant (Km) came to 18 ± 2 µM, the kcat was found to be 0.022 ± 0.001 s⁻¹ and the kcat/Km amounted to 1220 ± 44 M⁻¹ s⁻¹.

Substrate in a further data set: O=C1CCc2ccccc21
The data set can be described thus: purified protein. The data set is classed as biochemical, Aspergillus calidoustus. The following applies: 20 mM propargylamine, 0.2 mM NADPH, 1% DMSO, 100 mM Tris-HCl pH 9.0.
For the molecule B1, the Km is 16 ± 4 µM, the kcat was determined as 0.017 ± 0.001 s⁻¹ and the kcat/Km is 1060 ± 41 M⁻¹ s⁻¹.
